Results on one molecule are retold here after article PMC314469, “Protein Interaction Networks by Proteome Peptide Scanning” (PLoS Biology, 2004).

A value given as a limit tells only on which side of the number the result lay.

For the test, the target named is T1, GST-Abp1 SH3 domain (S. cerevisiae, UniProt P15891 532-592).
T1 construct: SH3 domain of Abp1, S. cerevisiae
T1 sequence (looked up): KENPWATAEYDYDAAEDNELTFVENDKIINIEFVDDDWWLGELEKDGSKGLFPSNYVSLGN
The test is described as follows: SPR; BIAcoreX; GST-fused SH3 domains (and GST as control) amine-coupled to CM5 chips; peptides flowed at 25°C in 10 mM HEPES, 150 mM NaCl, 3.4 mM EDTA, 0.005% P20, pH 7.4, 15 μl/min, 500 μM to 65 nM; steady-state model. The note with it: both partners purified.

Broadly, the Kd is a measure of binding affinity in units of concentration. Read a high Kd as lower affinity.

B1: Ynl094w peptide RRPPPPPIPSTQKP (peptide)
peptide: RRPPPPPIPSTQKP
notes: stretch of Ynl094w, S. cerevisiae; also called tetradecapeptide in the Ynl094w protein
The molecule B1 had a Kd of at least 100 µM.
